Results reported in the supplement of paper PMC12042874.
± gives the uncertainty stated by the source.

Assay: amyloid nucleation score (Sup35N fusion, yeast selection) (log enrichment); library NNK3; higher = more nucleation; inactive = no reads after selection
Summary of the method: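 Sup35N was fused to peptides of 20 random codons and expressed in psi-negative yeast, which were induced with 100 μM copper sulfate for 24 hours and then grown on medium lacking adenine and uracil for 7 days at 30°C. Plasmid inserts from input and output were sequenced on Illumina. The nucleation score is the DiMSum log enrichment of output over input reads, centred on the mode score of non-aggregating sequences. Sequences with under 100 input reads were left out, and random libraries had three technical output replicates.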
With WCARSTWKISIEY the amyloid nucleation score was “inactive”.
With IAYKFWGSNVLDR the amyloid nucleation score was “inactive”.
For WFVNL, the amyloid nucleation score was 1.38 ± 0.15.
Work on IKSLFVGGFSLNVTPTHKGR yielded an amyloid nucleation score of 1.57 ± 0.13.
For WLFSTSI, the amyloid nucleation score was “inactive”.
For ICTECAYFSTWRHSMCITWG, the amyloid nucleation score was “inactive”.
With CIQSMRH the amyloid nucleation score was “inactive”.
GRPHEPGKFIRNSSIGSGS showed an amyloid nucleation score of -0.479 ± 1.1.
With INQGLTWMLDRPSKFAFVAV the amyloid nucleation score was “inactive”.
In the case of FANFSILS, the amyloid nucleation score is reported as “inactive”.
With GLKFMRNVSTFRYLRRKTDY the amyloid nucleation score was “inactive”.
For DFRHSMEASWKIWIRAGTRE, the amyloid nucleation score was “inactive”.
In the case of HGKKRNGRSPYINGFYLCYW, the amyloid nucleation score is reported as “inactive”.
In the case of YYSWCRFTNDYSCCYRAFFA, the amyloid nucleation score is reported as “inactive”.
For YHRRLSTVLMGCMNRGLNYL, the amyloid nucleation score was “inactive”.
In the case of CWTMVASVTCYIVLLARWK, the amyloid nucleation score is reported as “inactive”.
With RGPVNCYYRISPRRPRHVSE the amyloid nucleation score was “inactive”.
With QYLEAWRCTHFTVGALLLMG the amyloid nucleation score was “inactive”.
With NCSYIDQR the amyloid nucleation score was 0.483 ± 0.14.
For TGGRAPHRCVYSD, the amyloid nucleation score was “inactive”.
In the case of VRDRCRIHCAYNRSKGTVSN, the amyloid nucleation score is reported as “inactive”.
For LFFRLHYS, the amyloid nucleation score was “inactive”.
With ILCSSDCDSYSLQPLFGFPC the amyloid nucleation score was “inactive”.
For DYMRFTYRIMNCLSDCYITN, the amyloid nucleation score was “inactive”.
In the case of SELFSEMREESKGRFNIWEV, the amyloid nucleation score is reported as “inactive”.
With CIQLVVT the amyloid nucleation score was “inactive”.
For YTVTASQTYFYSCRDGFAFS, the amyloid nucleation score was “inactive”.
With LVGLGLGFCYLIKTFVTLLV the amyloid nucleation score was “inactive”.
With HKEVMKNLCIFYPTDEMYRV the amyloid nucleation score was “inactive”.
With FSHHIDTFV the amyloid nucleation score was “inactive”.
With PNGLKTGGETRGRFYKCYMY the amyloid nucleation score was “inactive”.
With FYLTR the amyloid nucleation score was “inactive”.
With LTHRAVGLSNVNTPPSFCMR the amyloid nucleation score was 0.842 ± 0.2.
For SVSVVKSSEILSSMGPCGGT, the amyloid nucleation score was “inactive”.
For NSMYYPYQVVRWLVDWHVIR, the amyloid nucleation score was “inactive”.
With SIKSLTIDSCLTS the amyloid nucleation score was 0.809 ± 0.2.
In the case of NDNINRSPESSALWYD, the amyloid nucleation score is reported as “inactive”.
For FIYAC, the amyloid nucleation score was “inactive”.
In the case of NLGSCVRVGQWISPRRA, the amyloid nucleation score is reported as “inactive”.
Substance VNFLSDIVNFGCIVWFPPKI has an amyloid nucleation score of 2.32 ± 0.087.
In the case of SFHSPYL, the amyloid nucleation score is reported as “inactive”.
In the case of PTPMNKKRHYHVDVASPFSL, the amyloid nucleation score is reported as “inactive”.
LNWLC gave an amyloid nucleation score of 1.07 ± 0.086.
In the case of NLIVKSNYGAGNDMRCGDYT, the amyloid nucleation score is reported as “inactive”.
In the case of YWVRNVLNS, the amyloid nucleation score is reported as “inactive”.
With AICAVPRTKMMIQRTSSNRS the amyloid nucleation score was “inactive”.
For SKEAVLRVNPVVTFFSGSTR, the amyloid nucleation score was “inactive”.
For IYIGQFSLVVCVIIDIDI, the amyloid nucleation score was 1.75 ± 0.11.
For FAYVLFATFS, the amyloid nucleation score was -0.353 ± 1.2.
With MMMCG the amyloid nucleation score was “inactive”.
With PEFMTVLDVTMSYWWESCLG the amyloid nucleation score was “inactive”.
In the case of TIEFWGRVAGFLLM, the amyloid nucleation score is reported as “inactive”.
For FSACS, the amyloid nucleation score was “inactive”.
In the case of MAINYTFFPPRLVT, the amyloid nucleation score is reported as “inactive”.
For HHKITCLNRW, the amyloid nucleation score was “inactive”.
For SYFRRIRWQLEEHLLLLWR, the amyloid nucleation score was “inactive”.
With FLMKLWM the amyloid nucleation score was 1.66 ± 0.08.
In the case of NYVVRGRSQNVRNSEDNWGK, the amyloid nucleation score is reported as “inactive”.
With PWSCISLFNFFGITPCWTLS the amyloid nucleation score was 0.491 ± 0.67.
In the case of EFKQSSWY, the amyloid nucleation score is reported as “inactive”.
With NWVLARIWW the amyloid nucleation score was 0.755 ± 0.18.
In the case of TACQNDCVGG, the amyloid nucleation score is reported as “inactive”.
With PYHGSSMLKIRVRGD the amyloid nucleation score was “inactive”.
In the case of FMFLVFDC, the amyloid nucleation score is reported as “inactive”.
In the case of CSMSAIMYYSARFDV, the amyloid nucleation score is reported as “inactive”.
For CDMDVFLSNMPSSVVNRSG, the amyloid nucleation score was “inactive”.
For VGWNQDGDHMKSLKVAWARW, the amyloid nucleation score was “inactive”.
For EPSGNM, the amyloid nucleation score was “inactive”.
In the case of FDTWFLRFRTNDVYLKVFFY, the amyloid nucleation score is reported as “inactive”.
For DLTTFQDMSTCTLWVTSGYT, the amyloid nucleation score was “inactive”.
With LQPKLGIT the amyloid nucleation score was “inactive”.
In the case of HYKLSSMVSVYLLTIL, the amyloid nucleation score is reported as -0.307 ± 0.88.
In the case of CNYWCDVGLYGSKAFERSAT, the amyloid nucleation score is reported as “inactive”.
For DTDFIFVNIA, the amyloid nucleation score was “inactive”.
With LSRFQVGFHQIDIMRGDVWK the amyloid nucleation score was “inactive”.
Substance IGNAFFETRLVFGRH has an amyloid nucleation score of 1.86 ± 0.081.
In the case of IAKLVKFEEFRMQDCYIDWL, the amyloid nucleation score is reported as “inactive”.
With YLFTFVWQTTSLINVIVALI the amyloid nucleation score was “inactive”.
For AYIKWNVDCRLKTHNDGYFL, the amyloid nucleation score was “inactive”.
For YSCNKCVDEMRVRRGIERGV, the amyloid nucleation score was “inactive”.
For RRYSRIRYRRKLVNWLFYIM, the amyloid nucleation score was “inactive”.
For KCMFMEDCPLPEWSDLEVGL, the amyloid nucleation score was “inactive”.
With RRHKLW the amyloid nucleation score was “inactive”.
GLMALNVMSVNTTEYCRAYW showed an amyloid nucleation score of 0.56 ± 0.12.
Work on FEERHCGANWFGSYVIGRWR yielded an amyloid nucleation score of 0.798 ± 0.21.
VFVDLPRARG showed an amyloid nucleation score of 0.499 ± 0.32.
For QWGSWE, the amyloid nucleation score was “inactive”.
In the case of VSHRYFTGRMIALIRGDCLV, the amyloid nucleation score is reported as “inactive”.
For LLGSMVWGYSARYNFRVSQG, the amyloid nucleation score was “inactive”.
YGDWIHATCVICSLSF gave an amyloid nucleation score of 3.39 ± 0.05.
For VLDVVY, the amyloid nucleation score was “inactive”.
For LFWSNLWRRDMNISVSNYWL, the amyloid nucleation score was 1.69 ± 0.11.
With CFPIASHGDSCGMIAA the amyloid nucleation score was “inactive”.
With WIRIVRELGRSVR the amyloid nucleation score was “inactive”.
For FRMQGLKVREA, the amyloid nucleation score was “inactive”.
With THDSMHKCERMITPRGGCQQ the amyloid nucleation score was “inactive”.
In the case of MECELHTDGRSVACRHT, the amyloid nucleation score is reported as “inactive”.
For SSSESKFLYTDMWHMYWDFC, the amyloid nucleation score was 0.548 ± 0.14.
For VTPVFMIWAS, the amyloid nucleation score was “inactive”.
In the case of YDAIVAPFSFSTLAVVITYG, the amyloid nucleation score is reported as “inactive”.
Substance VVMYIRANPTDIYSYTLQPR has an amyloid nucleation score of 1.56 ± 0.12.
Work on SNSFTAFVYTYPWDHLVGVL yielded an amyloid nucleation score of -0.195 ± 0.47.
In the case of NYLNTVPVPGGPMVCMQHRI, the amyloid nucleation score is reported as “inactive”.
With AWTTQPPYMFSSGFWNFYVC the amyloid nucleation score was “inactive”.
In the case of LFFHHVKLRH, the amyloid nucleation score is reported as “inactive”.
With YFKSSFQKSLIDEVALKGWL the amyloid nucleation score was 0.224 ± 0.54.
For GSMLKAMELSDVVGSCIY, the amyloid nucleation score was “inactive”.
With CCRDVYTEGDM the amyloid nucleation score was “inactive”.
For IYSDHAL, the amyloid nucleation score was “inactive”.
For DLDGVPTHSVVERMKTWLDT, the amyloid nucleation score was “inactive”.
With YDVSRDATDCRVYCCPFSRS the amyloid nucleation score was 1.23 ± 0.1.
With LLRGVRKE the amyloid nucleation score was “inactive”.
For MLAVRMVDTPSSCQRIKPDN, the amyloid nucleation score was “inactive”.
In the case of CCGMYYNSMASNVWSER, the amyloid nucleation score is reported as 2.17 ± 0.084.
For FDFASFGKWVVVRFKCKTFT, the amyloid nucleation score was “inactive”.
For WCLHNLVSMLRDQTSRVSFP, the amyloid nucleation score was “inactive”.
With LRHHSSSVAPVRVGILRCNS the amyloid nucleation score was “inactive”.
With VLASWASYPTGSQSKGGERT the amyloid nucleation score was “inactive”.
In the case of FCSVIFLISIYCTRFSLVYD, the amyloid nucleation score is reported as “inactive”.
Work on NVYTPSIFACWSLCEGFFGI yielded an amyloid nucleation score of 2.2 ± 0.063.
In the case of NGGAHSLGK, the amyloid nucleation score is reported as “inactive”.
For CFSVGKWSIFRN, the amyloid nucleation score was “inactive”.
For MGSGGYNIITDGQSFFSTMA, the amyloid nucleation score was “inactive”.
Substance SMGKCRFRCVNIIFYWRWIH has an amyloid nucleation score of 1.25 ± 0.14.
In the case of RQGCKVCRWLRSKSLLLRRM, the amyloid nucleation score is reported as “inactive”.
For LRVYYYNMILDDFCVFVLEG, the amyloid nucleation score was 1.48 ± 0.13.
In the case of SYQWWLCFFSLFFIGGDFRT, the amyloid nucleation score is reported as “inactive”.
For GHMWFFVFY, the amyloid nucleation score was 2.52 ± 0.061.
For VFEVVYV, the amyloid nucleation score was “inactive”.
With QGNSRRSLINLHSLNKNILH the amyloid nucleation score was “inactive”.
With KNKYQLN the amyloid nucleation score was “inactive”.
With WLMIMDFKCLSPRTRSWRRM the amyloid nucleation score was “inactive”.
With MWITIS the amyloid nucleation score was “inactive”.
For KYPNRKLF, the amyloid nucleation score was “inactive”.
Substance SIIDKE has an amyloid nucleation score of -0.605 ± 0.98.
Substance RPFYLWNLNIICCPFIQTVK has an amyloid nucleation score of 2.39 ± 0.072.
For VNCTNLRKPLQLTQ, the amyloid nucleation score was “inactive”.
With VVWDGMQIGSWPQ the amyloid nucleation score was “inactive”.
In the case of FCQSFWLLQLARMPCYVESQ, the amyloid nucleation score is reported as “inactive”.
With VCNYEVVAVIRDE the amyloid nucleation score was “inactive”.
In the case of ALQLHWYYRDTRRRCFTVCV, the amyloid nucleation score is reported as “inactive”.
In the case of YGFFKAARRMRIS, the amyloid nucleation score is reported as “inactive”.
For RYSGANVDNYVN, the amyloid nucleation score was “inactive”.
With MIRWAYLCM the amyloid nucleation score was “inactive”.
With YNYLV the amyloid nucleation score was “inactive”.
With VQVIRFFWIMGLTGWTRELP the amyloid nucleation score was “inactive”.
For SLVYMWPDGTFLRWMGAWH, the amyloid nucleation score was “inactive”.
In the case of TRRPAQFVGPI, the amyloid nucleation score is reported as 0.645 ± 0.16.
In the case of SFQSLTM, the amyloid nucleation score is reported as “inactive”.
In the case of SAGTLGGYDFVYVAVDSLHR, the amyloid nucleation score is reported as “inactive”.
For VYLHYLTREVSDYLMWWFRV, the amyloid nucleation score was “inactive”.
With LWWISWRRGSQSMVVSG the amyloid nucleation score was “inactive”.
For VLGPDGRVKYVAKDSNIMVI, the amyloid nucleation score was “inactive”.
For YTILVCYSAGVAYYNKGLVR, the amyloid nucleation score was “inactive”.
With KGLASSYRTTYAVDL the amyloid nucleation score was “inactive”.
With NNRFTGILPVWTMHE the amyloid nucleation score was “inactive”.
For AFNVIRYVVWFSMVRASNAS, the amyloid nucleation score was “inactive”.
Substance SHLSYYTFKWSSEATRAVPM has an amyloid nucleation score of 1.82 ± 0.11.
For LTSMNSGLSYLKLFASQNLR, the amyloid nucleation score was “inactive”.
With EKFNCNVFIANWAK the amyloid nucleation score was 0.358 ± 0.36.
In the case of MFLKMRWSNAVRMARKCNLE, the amyloid nucleation score is reported as “inactive”.
Work on LRGVGDRIGNTSGISGLWPG yielded an amyloid nucleation score of 0.759 ± 0.19.
For IYGNSFPEGIHRTGWESYHR, the amyloid nucleation score was “inactive”.
